Measured values published in patent US20200407442A1.
Read-outs that look alike come from different tables or passages of the source.

Legend:
[1] = molecular target: full-length cynomolgus LAG-3 on cells (cynomolgus); assay: FACS on cynomolgus LAG-3-expressing 293F cells (target not labelled in the table)
Target sequence in this assay (P18627 other isoform, or with tags, fused parts or gaps limits assumed, form in doubt): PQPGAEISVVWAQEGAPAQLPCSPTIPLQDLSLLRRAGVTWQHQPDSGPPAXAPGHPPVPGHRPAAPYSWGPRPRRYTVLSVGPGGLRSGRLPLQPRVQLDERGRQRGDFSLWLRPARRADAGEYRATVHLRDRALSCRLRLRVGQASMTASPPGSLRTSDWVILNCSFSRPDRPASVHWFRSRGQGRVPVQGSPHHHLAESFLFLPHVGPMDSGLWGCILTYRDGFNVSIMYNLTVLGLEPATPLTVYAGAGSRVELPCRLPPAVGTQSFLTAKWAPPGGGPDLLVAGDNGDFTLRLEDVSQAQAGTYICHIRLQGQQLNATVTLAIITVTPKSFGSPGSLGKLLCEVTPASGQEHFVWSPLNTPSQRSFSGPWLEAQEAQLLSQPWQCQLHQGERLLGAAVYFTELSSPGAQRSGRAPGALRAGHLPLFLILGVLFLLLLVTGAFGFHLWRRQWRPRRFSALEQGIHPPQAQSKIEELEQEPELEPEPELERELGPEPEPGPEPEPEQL

[2] = molecular target: human LAG-3 protein (SPR analyte) (human) (UniProt P18627); assay: SPR Biacore 8K, antibody captured by anti-human Fc, LAG-3 as analyte
[3] = molecular target: mFc-tagged LAG-3 protein (human) (UniProt P18627); assay: ELISA competition: blocks mFc-tagged LAG-3 binding to coated LSECtin
Chain of mFc-tagged LAG-3 protein (human) (P18627 30-450): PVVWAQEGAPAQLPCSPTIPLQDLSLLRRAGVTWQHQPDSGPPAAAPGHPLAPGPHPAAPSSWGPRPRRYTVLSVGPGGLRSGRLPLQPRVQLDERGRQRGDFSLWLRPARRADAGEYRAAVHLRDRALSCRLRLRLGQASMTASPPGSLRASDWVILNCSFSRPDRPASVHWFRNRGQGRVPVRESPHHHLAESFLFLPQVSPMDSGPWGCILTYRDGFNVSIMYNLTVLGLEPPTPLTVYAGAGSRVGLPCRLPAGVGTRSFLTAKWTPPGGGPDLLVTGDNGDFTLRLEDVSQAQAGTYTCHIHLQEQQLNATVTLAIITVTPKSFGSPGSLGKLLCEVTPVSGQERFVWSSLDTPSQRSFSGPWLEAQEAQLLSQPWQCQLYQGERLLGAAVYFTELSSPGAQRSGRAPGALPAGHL

[4] = molecular target: full-length human LAG-3 on cells (human) (UniProt P18627); assay: FACS affinity on Flp-In-293 cells expressing human LAG-3
Chain of full-length human LAG-3 on cells (human) (P18627 23-525 limits assumed): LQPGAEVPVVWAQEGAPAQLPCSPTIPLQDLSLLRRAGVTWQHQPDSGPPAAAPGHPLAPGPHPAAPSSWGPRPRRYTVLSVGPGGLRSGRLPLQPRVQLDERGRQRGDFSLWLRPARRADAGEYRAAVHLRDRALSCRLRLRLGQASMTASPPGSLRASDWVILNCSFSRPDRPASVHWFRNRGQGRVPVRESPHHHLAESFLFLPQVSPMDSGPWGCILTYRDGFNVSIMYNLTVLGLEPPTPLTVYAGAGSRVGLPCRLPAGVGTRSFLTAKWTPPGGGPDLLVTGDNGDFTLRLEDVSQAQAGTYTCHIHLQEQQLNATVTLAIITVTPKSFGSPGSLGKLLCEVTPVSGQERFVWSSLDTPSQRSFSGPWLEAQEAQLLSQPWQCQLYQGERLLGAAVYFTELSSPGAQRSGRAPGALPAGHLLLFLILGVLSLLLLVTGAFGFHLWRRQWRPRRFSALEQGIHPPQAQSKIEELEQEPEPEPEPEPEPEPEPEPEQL

[5] = molecular target: full-length human LAG-3 on cells (human) (UniProt P18627); assay: FACS on human LAG-3 transfectant cells
[6] = molecular target: mFc-tagged LAG-3 protein (human) (UniProt P18627); assay: FACS competition: blocks mFc-tagged LAG-3 binding to MHC-II on Raji cells
[7] = molecular target: full-length human LAG-3 on cells (human) (UniProt P18627); assay: cell-based or functional assay
[8] = molecular target: mFc-tagged LAG-3 protein (human) (UniProt P18627); assay: ELISA competition: blocks mFc-tagged LAG-3 binding to coated Galectin-3
[9] = molecular target: full-length cynomolgus LAG-3 on cells (cynomolgus); assay: FACS on cynomolgus LAG-3-expressing 293F cells (target not labelled in the table); remark: listed apart in the source
Target sequence in this assay (P18627 other isoform, or with tags, fused parts or gaps limits assumed, form in doubt): as the sequence (P18627 other isoform, or with tags, fused parts or gaps limits assumed, form in doubt) above

Chain of human LAG-3 protein (SPR analyte) (human) (P18627 30-450 limits assumed): as the sequence (P18627 30-450) above

| EC50 [1] [nM] | Kd [2] [nM] | koff [2] [s⁻¹] | kon [2] [M⁻¹ s⁻¹] | EC50 [3] [nM] | Kd [4] [nM] | EC50 [5] [nM] | EC50 [6] [nM] | EC50, IL-2 luciferase reporter gene assay (Jurkat cells expressing human LAG-3 with Raji cells and SEE) [7] [nM] | EC50 [8] [nM] | EC50 [9] [nM] | Binder |
| --- | --- | --- | --- | --- | --- | --- | --- | --- | --- | --- | --- |
| 3.92 |  |  |  |  |  |  |  |  |  |  | 3.40.19-uAb-IgG4L (antibody, V domains shown) VH: QLQLQESGPGLVKPSETLSLTCTVSGDSISSTSYYWGWIRQPPGKGLEWIGSFYYSGSTYYNPSLKSRVTISVDTSKNQFSLKLNSVTAADTAVYYCARMQLWSYDVDVWGQGTTVTVSS VL: QSALTQPASVSGSPGQSITISCTGTSSDVGGYDYVAWYQQHPGKVPKLMIYDVSERPSGVSNRFSGSKSGNTASLTISGLQAEDEADYYCSSYTSTTTLVVFGGGTKLSVL |
|  | 0.497 | 0.000106 | 213000 | 0.59 | 0.58 | 0.61 | 1.25 | 2.65 | 0.79 | 2.65 | BMK7 (antibody, INN chains, looked up, V domains shown) VH: QVQLVESGGGVVQPGRSLRLSCVASGFTFSSYGMHWVRQAPGKGLEWVAIIWYDGSNKYYADSVKGRFTISRDNSKNTQYLQMNSLRAEDTAVYYCASVATSGDFDYYGMDVWGQGTTVTVSS VL: EIVLTQSPATLSLSPGERTTLSCRASQRISTYLAWYQQKPGQAPRLLIYDASKRATGIPARFSGSGSGTGFTLTISSLEPEDFAVYYCQQRSNWPLTFGGGTKVEIK |
| 4.01 |  |  |  |  |  |  |  |  |  |  | 1.53.3-uAb-IgG4k (antibody, V domains shown) VH: QVQLQQWGAGLLKPSETLSLTCGVYGGSFSGYYWSWIRQPPGMGLEWIGEINHRGNTNYNPSLKSRVTISEDTSKNQFSLRLSSVTAADTAVYFCTRGEDYSDYDYYGDFWGQGTLVTVSS VL: EIVLTQSPATLSLSQGERATLSCRASQSISSYLAWYQQKPGQAPRLLIYAASNRATGIPARFSGSGSGTDFTLTISSLEPEDFAIYYCQQRSNWPLTFGGGTKVEIK |
